Assay results: patent publication US20210380703A1
Changes are numbered by the printed parent chain.

B1: 366_E03 (antibody, V domains shown)
VH: EVQLLESGGGLVQPGGSLRLSCAASGFTFDSYGMNWVRQAPGKGLEWVSNINYNGGYKSYADSVKGRFTISRDNSKNTLYLQMNSLRAEDTAVYYCARSATWHDTHLDYWGQGTLVTVSS
VL: DIQMTQSPSSLSASVGDRVTITCRASQSILTYLNWYQQKPGKAPKLVIYAATSRHSGVPSRFSGSGSGTDFTLTISSLQPEDFATYYCQQSYSNPLTFGGGTKVEIK
B2: 367_F08 (antibody, V domains shown)
VH: B1 VH with D30S, N35H, N50S, G55S, K58T, S99A
VL: B1 VL with T31S, L33V, H55A, Y92N, S93E, N94L
B3: 371_F12 (antibody, V domains shown)
VH: B1 VH with G33S
VL: B1 VL with L30I, T31S, V47L, H55A, Y92N, S93N, N94L
B4: 366_C03 (antibody, V domains shown)
VH: B1 VH with K58T, S59G
VL: B1 VL with T31S, H55A
B5: 365_E03 (antibody, V domains shown)
VH: B1 VH with G33S, K58T, S59G
VL: B1 VL with L33V, V47L, R54L, Y92D, S93E, N94R
B6: 371_B10 (antibody, V domains shown)
VH: B1 VH with G33S, K58T, S59G
VL: B1 VL with L30V, T31S, L33V, V47L, H55A, S93D, N94L
B7: 369_G09 (antibody, V domains shown)
VH: B1 VH with G33S, K58T, S59G
VL: B1 VL with L30V, V47L, H55A, S93D, N94L
B8: 373_A07 (antibody, V domains shown)
VH: B1 VH with D30S, G33S, K58T, S59G
VL: B1 VL with L33V, V47L, H55A, Y92D, S93N, N94L
B9: 367_D02 (antibody, V domains shown)
VH: B1 VH with S31D, G33S, K58T
VL: B1 VL with L30V, L33V, V47L, H55A, S93E
B10: 367_F10 (antibody, V domains shown)
VH: B1 VH with N50G, G55S, K58T, S99A
VL: B1 VL with V47L, H55A, S93D, N94T
B11: 374_C07 (antibody, V domains shown)
VH: B1 VH with G33S, K58T
VL: B1 VL with L30I, T31S, V47L, H55A, Y92D, S93E, N94L
B12: 374_A03 (antibody, V domains shown)
VH: B1 VH with G33S, K58T
VL: B1 VL with V47L, H55A, S93D
B13: 365_A02 (antibody, V domains shown)
VH: B1 VH with G33S, K58T
VL: B1 VL with L33V, V47L, H55A, S93N, N94S
B14: 365_D06 (antibody, V domains shown)
VH: B1 VH with G33S, K58T
VL: B1 VL with L33V, V47L, H55A, N94L
B15: 366_C07 (antibody, V domains shown)
VH: B1 VH with D30S, G33S, K58T
VL: B1 VL with L33V, V47L, H55A, S93N, N94S
B16: 369_E09 (antibody, V domains shown)
VH: B1 VH with G33S, G55S, S59G
VL: B1 VL with T31S, H55A, S93D, N94L
B17: 365_G02 (antibody, V domains shown)
VH: B1 VH with D30S, S31D, G33S, G55S, S59G
VL: B1 VL with L30V, A51V, R54L, S93E, N94L
B18: 373_D02 (antibody, V domains shown)
VH: B1 VH with D30S, G33S, G55S, S59G
VL: B1 VL with T31S, V47L, R54L, H55A, S93D, N94L
B19: 374_E03 (antibody, V domains shown)
VH: B1 VH with D30S, G33S, G55S, S59G
VL: B1 VL with L33V, R54L, H55A, S93D, N94T
B20: 365_E04 (antibody, V domains shown)
VH: B1 VH with N35H, S49A, N50S, S99A, T101N, H106A
VL: B1 VL with T31S, L33V, V47L, R54L, H55A, S93E, N94L
B21: 367_G03 (antibody, V domains shown)
VH: B1 VH with G33S, N35H, S49A, K58T, S99A
VL: B1 VL with L30V, T31S, L33V, S93D, N94L
B22: 374_D11 (antibody, V domains shown)
VH: B1 VH with G55S, K58T, S59G
VL: B1 VL with V47L, H55A, S93E, N94T
B23: 370_D07 (antibody, V domains shown)
VH: B1 VH with D30S, G55S, K58T, S59G
VL: B1 VL with T31S, L33V, R54L, H55A, S93E, N94S
B24: 374_A08 (antibody, V domains shown)
VH: B1 VH with G33S, G55S, K58T
VL: B1 VL with L30V, V47L, R54L, H55A, S93D, N94L
B25: 374_G01 (antibody, V domains shown)
VH: B1 VH with G33S, G55S, K58T
VL: B1 VL with L33V, V47L, A51T, S93N, N94L
B26: 374_G12 (antibody, V domains shown)
VH: B1 VH with S31D, N50S
VL: B1 VL with L33V, R54L, H55A, S93N, N94S
B27: 375_G10 (antibody, V domains shown)
VH: B1 VH with D30S, N50S
VL: B1 VL with L30V, S93D, N94T
B28: 375_G12 (antibody, V domains shown)
VH: B1 VH with N35H, N50S, K58T
VL: B1 VL with L30V, T31S, L33V, V47L, S93D, N94T
B29: 368_G07 (antibody, V domains shown)
VH: B1 VH with D30S, G33S, N35H, N50S, K58T
VL: B1 VL with L30V, T31S, L33V, H55A, S93D, N94T
B30: 367_H04 (antibody, V domains shown)
VH: B1 VH with D30S, G33S, N50S, K58T
VL: B1 VL with L33V, V47L, Y92D, S93N
B31: 374_E06 (antibody, V domains shown)
VH: B1 VH with G33S, N50S, G55S, S59G
VL: B1 VL with T31S, V47L, H55A, S93D, N94L
B32: 370_A10 (antibody, V domains shown)
VH: B1 VH with D30S, S31D, G33S, N50S, G55S, S59G
VL: B1 VL with T31S, L33V, V47L, R54L, H55A, S93D, N94T
B33: 368_H10 (antibody, V domains shown)
VH: B1 VH with D30S, G33S, N50S, G55S, S59G
VL: B1 VL with L30V, T31S, L33V, A51V, R54L, H55A, S93E, N94T
B34: 368_G08 (antibody, V domains shown)
VH: B1 VH with S31D, N50S, G55S
VL: B1 VL with L30V, T31S, L33V, V47L, S93N

Target: human Fc (human)
Experiment: ELISA, negative control

Row | Binder | optical density [OD]
1 | B1 | 0.384
2 | B2 | 0.299
3 | B3 | 0.413
4 | B4 | 0.274
5 | B5 | 0.314
6 | B6 | 0.387
7 | B7 | 0.395
8 | B8 | 0.177
9 | B9 | 0.321
10 | B10 | 0.253
11 | B11 | 0.225
12 | B12 | 0.178
13 | B13 | 0.374
14 | B14 | 0.319
15 | B15 | 0.301
16 | B16 | 0.278
17 | B17 | 0.325

Row | Binder | optical density [OD]
18 | B18 | 0.18
19 | B19 | 0.176
20 | B20 | 0.46
21 | B21 | 0.341
22 | B22 | 0.162
23 | B23 | 0.309
24 | B24 | 0.16
25 | B25 | 0.161
26 | B26 | 0.214
27 | B27 | 0.175
28 | B28 | 0.199
29 | B29 | 0.29
30 | B30 | 0.289
31 | B31 | 0.191
32 | B32 | 0.434
33 | B33 | 0.281
34 | B34 | 0.329
